# B1: OR4K15 (parent)
# chain: GUUAACGGUCAUAGGCCAUGGAAACUAGGAGCACCAUUUCGCUGCCAGUGAAGAAAUGAACAAAGAAAAUCUGGGCCAGGCAGGCAUCAAAAGAAAUAGUCUUGCGCUCAACCAGAAAGUCUGUAAUCAUUUUAAGGGUA
# Variants of: B1
# Assay: self-cleavage, relative activity (ratio to wild type); higher = more cleavage; in vitro, sequencing; the parent is a self-cleaving ribozyme
row,Variant,self-cleavage
1,U127C A134U,1.36
2,A92U A126G,1.18
3,C77U A89G,2.1
4,U38C A64G,1.45
5,A60U G115A,0.29
6,A55G U72A,0.19
7,U19A A54U,1.8
8,A4G U39G,1.88
9,A95U A118G,1.41
10,A23G A126G,0.76
11,A63G A125G,0.64
12,A67G U133C,1.12
13,A22G A86G,1.31
14,A18U A90G,0.53
15,A24G G29U,1.2
16,A11G A68U,1.23
17,G41U,1.74
18,A66G A82U,0.29
19,A96G U108A,0.02
20,U70C G83A,1.57
21,A47U U122C,0.67
22,G28A A110G,0.17
23,A47U A135C,1.32
24,A89U A110U,1.46

row,Variant,self-cleavage
1,A11C U72C,0.13
2,G58A,1.13
3,A63U U87A,1.18
4,C113A U120C,0.02
5,A86G U122A,1.61
6,U72A U124A,0.1
7,U19A A126C,0.55
8,A24G G83A,0.98
9,C35U U122A,1.26
10,A68G G80A,0.21
11,A33U A62U,2.26
12,A33U A62G,1.52
13,A59U A111U,0.13
14,A95C U124C,0.32
15,U57G A95G,2.15
16,U72G,0.12
17,A90G A125G,0.23
18,A95G C109A,0.78
19,A78C A116G,0.13
20,U19A A69G,1.14
21,U39C C101U,0.46
22,A24G U132A,0.48
23,U19A G53A,1.39
24,A68G A135G,1.23

row,Variant,self-cleavage
1,A66G A86G,1.16
2,U57C U97A,1.32
3,U2C G41A,1.29
4,A60C A89C,1.8
5,A24C A91G,1.24
6,A89G U108C,0.02
7,U39C,1.34
8,U19C U108A,0.03
9,U3C U127C,1.79
10,A118G U120A,2.61
11,U39A G104A,0.03
12,U19C U49A,1.38
13,A47C U49G,1.78
14,U9C A114G,0.64
15,G15C U39C,1.26
16,U12C A62G,1.18
17,A24G U57G,0.4
18,C10A A90G,1.02
19,A66G U72C,0.09
20,A23G U124C,0.69
21,A23U U39C,1.27
22,A36G A118C,1.46
23,A78G U127C,0.22
24,A96G C107A,0.01

row,Variant,self-cleavage
1,G44A U102C,2.14
2,A69C U132C,2.58
3,A62U A111U,0.07
4,U57A A90G,0.76
5,U49A A62U,1.92
6,A59G G73A,0.17
7,U57C C88U,1.04
8,A51G A95G,1.7
9,C81A A82G,0.13
10,A47U A78C,0.08
11,G84A U108C,0.01
12,A22U U108C,0.03
13,U108C U132A,0.02
14,A63G A66C,0.27
15,A4G A13G,1.27
16,G119C,1.04
17,G53U A66U,1.77
18,A22U C25U,0.77
19,A18U U39C,1.81
20,A95G U127C,1.56
21,A55G A117G,0.76
22,G93U A135G,1.96
23,U49A A82G,0.52
24,U37C A118G,1.36

row,Variant,self-cleavage
1,U49C A63G,1.75
2,A66G C81G,0.18
3,A5G U43A,1.49
4,U57G A126G,0.52
5,A69U A134G,1.82
6,C109U U127G,0.62
7,A96G A116G,0.98
8,A55C G106A,0.02
9,U12C A60G,1.34
10,A24U U26A,1.57
11,A64U U108A,0.02
12,G21A A125G,0.73
13,U26G A66G,1.09
14,A13U U102C,1.56
15,G8C U122C,1.12
16,U2C U127C,0.9
17,A68U U70C,0.43
18,G29A U139C,2.53
19,A47G G74A,0.21
20,A51G A129G,1.11
21,A94G U127G,1.87
22,C16U A129C,1.3
23,U120C U122A,0.26
24,G58A U132C,1.64

row,Variant,self-cleavage
1,G119A U122C,1.11
2,G31A A59G,1.04
3,A27U U108C,0.03
4,U43A A96G,2.07
5,A55G A92U,1.65
6,A82U U122G,0.28
7,G28U,0.74
8,U102C A110U,1.94
9,U37C A114U,0.15
10,A64C G80A,0.2
11,A68G A95G,1.98
12,A47G A59G,0.86
13,A27G U49C,2.01
14,C35U U57A,0.59
15,A11G A47G,1.27
16,A18G A82G,0.98
17,U37C A92U,1.61
18,C25G U108C,0.03
19,C85U U122C,0.9
20,A69G U139A,1.69
21,C35U U38A,0.41
22,U19A A117U,0.55
23,A33U A126U,1.67
24,U12A A51U,1.05

row,Variant,self-cleavage
1,A89U U100C,2.55
2,C77U A91G,1.91
3,A92G U124C,1
4,C34U A67U,1.92
5,A117G U124C,0.69
6,U3A U127C,0.63
7,U38C A62G,1.37
8,U26C U103C,0.69
9,A69U G137A,2.13
10,U9C A62U,2.18
11,A78C U108A,0.01
12,A54G A125G,0.81
13,U19G A140G,1.51
14,G1U A63G,0.92
15,U133C A140G,1.34
16,U2C U39G,1.43
17,U49A U57G,0.46
18,A67G U72A,0.26
19,A55G U124C,0.5
20,A62G U130G,1.06
21,U12C U132A,0.67
22,A23U U103C,0.03
23,A24G A114C,0.05

# Reference: the RNAGym collection of RNA variant scans (doi:10.7554/elife.90254)
